The values that follow come from patent US20060121462A1, “Receptor and screening methods” (priority 2003, published 2006).

Assay [1] has as its target T1, C3aR (Homo sapiens, UniProt Q16581).
T1 construct: expressed in transfected cells
T1 sequence (Q16581 1-482): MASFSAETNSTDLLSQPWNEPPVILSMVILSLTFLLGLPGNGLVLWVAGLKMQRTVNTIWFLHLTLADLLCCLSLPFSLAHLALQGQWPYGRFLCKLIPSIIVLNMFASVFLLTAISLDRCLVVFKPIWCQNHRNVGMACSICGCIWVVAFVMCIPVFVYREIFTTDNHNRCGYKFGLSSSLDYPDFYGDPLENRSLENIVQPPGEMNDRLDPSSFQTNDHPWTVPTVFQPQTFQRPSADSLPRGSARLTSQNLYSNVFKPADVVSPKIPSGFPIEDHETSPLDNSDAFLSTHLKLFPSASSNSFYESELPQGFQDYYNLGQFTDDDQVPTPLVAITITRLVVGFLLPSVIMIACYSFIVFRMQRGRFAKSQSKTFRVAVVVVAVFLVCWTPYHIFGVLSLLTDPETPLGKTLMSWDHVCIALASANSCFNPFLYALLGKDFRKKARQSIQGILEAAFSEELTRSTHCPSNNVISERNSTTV
In words: Radiolabelled ligand competition receptor binding, C3aR-transfected RBL cells. The source says: (§1) C5L2, C3aR and CD88-transfected RBL cells were produced as described (17). G16 was cloned from human monocytes mRNA and authenticated by sequencing. Human G16 and either C5L2 or CD88 were ligated into the bicistronic expression vector pIRES (Qiagen). Stable transfection of RBL-2H3 cells with pIRES constructs was achieved by electroporation (18). Cells underwent three rounds of fluorescence-activated cell sorting using anti-CD88 antibody (clone S5/1; Serotec) or anti-hemagglutinin peptide antibody (Roćhe Molecular Biochemicals, clone 12CA5), selecting the top 5% of receptor-positive cells in each round.
(§2) Competition binding assays were performed using 50 pM ^125I-C5a or ^125I-C3a (NEN) on adherent C5aR-transfected or C5L2-transfected RBL cells in 96-well microtiter plates (55 000/well) at 4° C. as described previously (22). Competition curves were generated by pre-incubating adherent cells with increasing concentrations of unlabelled complement fragments. The IC50, standard error values and linear regression analyses were obtained by using GraphPad Prism 2.0.

The target in assay [2] is T2, C5L2 (Homo sapiens, UniProt Q9P296).
T2 construct: expressed in transfected cells
T2 sequence (Q9P296 whole entry): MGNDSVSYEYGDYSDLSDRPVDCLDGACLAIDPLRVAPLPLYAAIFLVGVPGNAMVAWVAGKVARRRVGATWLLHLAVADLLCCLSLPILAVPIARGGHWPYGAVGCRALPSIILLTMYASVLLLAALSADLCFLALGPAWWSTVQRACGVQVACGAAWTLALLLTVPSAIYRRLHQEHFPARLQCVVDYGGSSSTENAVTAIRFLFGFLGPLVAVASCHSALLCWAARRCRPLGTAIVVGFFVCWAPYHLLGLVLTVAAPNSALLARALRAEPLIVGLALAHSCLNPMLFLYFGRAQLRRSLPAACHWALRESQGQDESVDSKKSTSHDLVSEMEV
As to the kind of experiment: Fluorescent ligand binding/uptake (FACS), HEK 293 cells transiently transfected with C5L2. The protocol: (§3) HEK 293 cells were transfected with C3aR (A) or C5L2 (B) and three days later cells were incubated for 30 minutes with the indicated concentrations of FLUOS-labelled C3a or ASP, respectively. Binding/uptake was assessed by FACS, and the percentage of cells above a fluorescence intensity of 8 was determined. The fluorescence histograms at the highest and lowest ligand concentrations are shown in the insets;
(§4) HEK 293 cells were seeded into 6-well plates at 1×10^6 cells/well the day before transfection. C5L2 in vector pEE6hCMV.neo (Celltech) or C3aR in vector pcDNA1/AMP (Invitrogen) at 2 μg DNA/well were transfected with Lipofectamine2000 (5 μl/well) (Invitrogen) according to the manufacturer's protocol. Cells were assayed for binding/uptake three days post-transfection.
(§5) ASP or C3a was labelled with FLUOS (Roche Biochemicals) at a molar ratio of 1:10 (ligand:FLUOS) for two hours according to the manufacturer's recommendations. Labelled ligand was separated from free FLUOS on a Sephadex G25M column and stored in aliquots at −80° C.
(§6) Cells were incubated with the indicated concentrations of FLUOS-labelled ASP or C3a for 30 minutes at 37° C. in binding buffer (23) and washed three times with cold binding buffer. Cells were then detached with 0.25% trypsin/0.02% EDTA in PBS, fixed with 1% paraformaldehyde, washed with PBS, and assayed by fluorescence-activated cell scanning.

Assay [3] concerns the target T1, C3aR. In words: Fluorescent ligand binding/uptake (FACS), HEK 293 cells transiently transfected with C3aR. Particulars: HEK 293 transiently transfected with C3aR; mean±SD, n=3. On the procedure:
as §3, §4, §5, §6

The target of assay [4] is T2, C5L2. In words: Competition binding with 125I-C5a, C5L2-transfected RBL cells. On the procedure:
(§7) FIG. 1 illustrates C3a des-Arg^77 and C4a des-Arg^77 bind to RBL cells expressing C5L2. RBL cells transfected with C5L2 were incubated with the stated concentrations of complement fragments for 10 min prior to the addition of 50 pM ^125I-C3a (A) or 50 pM ^125I-C5a (B). Results are the means of n (n shown in Table 1) separate experiments performed in duplicate±S.E.;
as §1, §2

Assay [5] has as its target T2, C5L2. As to the kind of experiment: Competition binding with 125I-C3a, C5L2-transfected RBL cells. Particulars: for IC50 / pD2 ± SE: C5L2 (^125I-C3a) expressed in RBL cells, 50 pM radioligand. The protocol: as §7, §1, §2
For assay [6], the target named is T3, CD88 (Homo sapiens, UniProt P21730).
T3 construct: expressed in transfected cells
T3 sequence (P21730 1-350): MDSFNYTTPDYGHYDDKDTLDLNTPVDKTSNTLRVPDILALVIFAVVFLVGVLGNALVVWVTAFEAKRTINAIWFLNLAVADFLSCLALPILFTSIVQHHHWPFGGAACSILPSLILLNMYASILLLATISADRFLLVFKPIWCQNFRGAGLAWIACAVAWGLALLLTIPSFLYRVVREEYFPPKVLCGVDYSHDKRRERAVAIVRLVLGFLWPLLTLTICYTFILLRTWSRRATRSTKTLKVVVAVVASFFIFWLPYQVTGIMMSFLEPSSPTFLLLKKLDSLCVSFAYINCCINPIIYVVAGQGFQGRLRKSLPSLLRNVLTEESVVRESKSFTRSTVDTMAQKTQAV
As to the kind of experiment: Degranulation of CD88-transfected RBL cells. The assay is classed as cell-based.

In assay [7] the target is T2, C5L2. In words: Degranulation (β-hexosaminidase) and enhancement of IgE-receptor-mediated degranulation, C5L2-transfected RBL cells. The assay is classed as cell-based.
Assay [8] has as its target T1, C3aR. As to the kind of experiment: Degranulation of C3aR-transfected RBL cells. The class given is cell-based. The following applies: RBL cells transfected with C3aR; data not shown. On the procedure:
(§8) Cellular activation was measured as the release of -hexosaminidase from intracellular granules (20). In the enhancement of degranulation assay, cells were treated with 1 μg/ml IgE^DNP (21) overnight, then with chemoattractants or peptides for 10 min prior to stimulation with 100 ng/ml DNP-HSA (Sigma) for 15 minutes. EC50 and standard error values were obtained by iterative curve fitting using GraphPad Prism 2.0.

For assay [9], the target named is T4, human formyl peptide-like receptor-1 (Homo sapiens, UniProt P25090).
T4 construct: expressed in transfected cells; host or cells: RBL cells
T4 sequence (P25090 1-351): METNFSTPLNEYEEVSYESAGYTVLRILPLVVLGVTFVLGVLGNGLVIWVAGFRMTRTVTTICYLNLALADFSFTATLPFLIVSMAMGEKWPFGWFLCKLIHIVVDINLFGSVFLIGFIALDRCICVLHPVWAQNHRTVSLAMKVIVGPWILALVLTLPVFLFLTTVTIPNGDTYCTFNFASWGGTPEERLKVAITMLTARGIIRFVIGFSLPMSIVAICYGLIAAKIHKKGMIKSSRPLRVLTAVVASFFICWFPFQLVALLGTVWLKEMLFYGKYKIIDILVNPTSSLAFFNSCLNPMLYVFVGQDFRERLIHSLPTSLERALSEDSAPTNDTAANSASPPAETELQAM
As to the kind of experiment: Enhancement of degranulation, RBL cells transfected with an irrelevant receptor. The assay is classed as cell-based. Particulars: RBL cells transfected with FPRL-1, FIG. 3B. On the procedure: FIG. 3 illustrates C3a des-Arg^77 enhances the degranulation response to cross-linkage of the high affinity IgE receptor in cells transfected with C5L2. RBL cells transfected with A), C5L2 or B), an irrelevant receptor (human formyl peptide-like receptor-1) were incubated overnight with […] IgE^DNP and then treated with the stated concentrations of C5a des-Arg^74, C4a des-Arg^77 or C3a des-Arg^77 or ASP for 15 minutes prior to the addition of the cross-linking agent, HSA-DNP at 100 ng/ml. Degranulation was assessed as the secretion of β-hexosaminidase. Results are shown as a percentage of the release stimulated by 100 ng/ml HSA-DNP in the absence of anaphylatoxin (control=1) and are means of 3-6 separate experiments performed in triplicate, ±S.E.
as §8

In assay [10] the target is T3, CD88. As to the kind of experiment: Radiolabelled ligand competition receptor binding, CD88-transfected RBL cells.
Text: as §1, §2

Another assay has as its target T5, CD88+Gα16 (Homo sapiens, UniProt P21730).
T5 construct: expressed in transfected cells
T5 sequence (P21730 1-350): T3 sequence (P21730 1-350)
In words: Degranulation of CD88+Gα16 co-transfected RBL cells. The assay is classed as cell-based. The following applies: 10 ng/ml PT.

For assay [11], the target named is T2, C5L2. In words: Triglyceride synthesis (3H oleate incorporation) in HEK293 cells stably transfected with C5L2. The assay is classed as cell-based. The protocol: FIG. 15: Functional Response of HEK293 Cells Stably Transfected with C5L2 to ASP and Insulin: Cells were tested for response to ASP and insulin stimulation of triglyceride synthesis with 100 μM ^3H oleate for 4 hours. Results are calculated as nmol ^3H oleate incorporated into triglyceride/mg cell protein where 0 ASP is set as 100%. […] As in many biologic assays, the concentration required for activity at 37° C. under dynamic conditions is greater than the binding affinity (which is assessed at 4° C. under static conditions). For example, insulin Kd is in the pM range, but nM concentrations are required for activity. ASP Kd is high nM range, but biologic activity is in low μM range.

The mark [12] stands for this setting: C5L2 (^125I-C5a) expressed in RBL cells, 50 pM radioligand.
Setting [13] is: HEK-C5L2 stable transfectants, 100 μM ^3H oleate, 4 hours.

As for “^125I-ASP: ^125I-labelled ASP [reference compound]”, in the assay with C3aR [1] (^125I-labelled ligand, data not shown), the “binding to C3aR-transfected cells” value is listed as “does not bind to C3aR-transfected cells”.
With “FLUOS-ASP: ASP labelled with FLUOS at a molar ratio of 1:10”, in the assay with C5L2 [2] (HEK 293 transiently transfected with C5L2, 30 minutes at 37° C., flow cytometry, read-out: half maximal fluorescence intensity (binding/uptake)), the Kd is about 0.003 µM. Moreover, the “binding to mock-transfected cells” value with C5L2 [2] (mock-transfected HEK 293 cells, 10 nM) is given as “no binding”. Moreover, the “binding (basal binding=100%)” value in the assay with C3aR [3] is on record as 103%±14%.
On to C3a des-Arg^77, for which the IC50 in the assay with C5L2 [4] (setting [12]) is 18 µM; with C5L2 [5] it was 0.526 µM. The figures for the “pD2 ± SE” value in the assay with C5L2 [4] (setting [12]) and with C5L2 [5] were 4.73 ± 0.16 and 6.24 ± 0.10, respectively. Moreover, the “competition with ^125I-C5a binding to C5L2” value in the assay with C5L2 [4] (FIG. 1B) is recorded as “cannot compete effectively”. Also, the “competition with ^125I-C3a for C5L2 binding” value with C5L2 [5] (FIG. 1A) is “can compete strongly”. Moreover, the stimulation of degranulation result with CD88 [6] (RBL cells transfected with CD88, data not shown) is listed as “neither C3a des-AXg^77 nor C4a des-Arg^77 can stimulate degranulation”; in the assay with C3aR [8], “neither C3a des-AXg^77 nor C4a des-Arg^77 can stimulate degranulation”. For the same substance, in the assay with C3aR [1] (Table I), the “affinity for C3aR” value is “no detectable affinity”. Also, in the assay with C5L2 [7] (without IgE receptor cross-linking, data not shown), the “direct stimulation of degranulation” value is “neither recombinant nor purified C3a des-Arg^77 (or any other ligand) is able to directly stimulate degranulation”. Moreover, the enhancement of degranulation result in assay [9] was “small enhancement of degranulation”. Besides, in the assay with CD88 [10], the “competition with ^125I-C5a binding to CD88” value was “cannot compete effectively”.
For the substance pertussis toxin [reference compound], the “effect on degranulation response to C5a” value at CD88 [6] (CD88 alone, 0-10 ng/ml PT for 4 h prior to 50 nM C5a) was “inhibited the degranulation response”; on CD88+Gα16, “a small inhibition of degranulation”. Besides, the “effect on enhancement of degranulation by ASP/C3a des-Arg^77” value at C5L2 [7] (C5L2 alone, 10 ng/ml PT for 4 h, FIG. 4C) was “can be inhibited by pre-treating cells with pertussis toxin”.
In the case of “ASP: Plasma ASP (C3a des-Arg^77), human C3a des-Arg^77 purified as acylation-stimulating protein”, the “Kd” value with C5L2 [5] (binding affinity assessed at 4° C. under static conditions) is given as “high nM range”. Also, the “concentration for biologic activity” value with C5L2 [11] (37° C. under dynamic conditions) is “low μM range”. Moreover, the “stimulation of triglyceride synthesis” value in the assay with C5L2 [11] (setting [13]) is “increasing triglyceride synthesis in a concentration dependent manner”; with C5L2 [11] (non-transfected HEK cells), “not responsive to ASP”. Further, in the assay with C5L2 [7] (enhancement of IgE-mediated degranulation, FIG. 3A), the “EC50 compared with recombinant C3a des-Arg^77” value is reported as “identical EC50”.
Consider C3a: 77 amino acid complement fragment, for which the IC50 with C5L2 [4] (setting [12]) worked out at 23 µM; with C5L2 [5], 0.167 µM; with CD88 [10] (CD88 expressed in RBL cells, competition binding, 4° C., read-out: IC50 (concentration of unlabelled ligand resulting in 50% of maximal radioligand binding)), 23 µM. Further, the “pD2 ± SE” value in the assay with C5L2 [5] was 6.78 ± 0.10.
With insulin, the “stimulation of triglyceride synthesis” value at C5L2 [11] (setting [13]) and at C5L2 [11] (non-transfected HEK cells) was “neither HEK nor HEK-C5L2 are responsive to insulin” throughout.
